T1: purified recombinant allergen Aspergillus fumigatus 1 (rAsp f 1) (Aspergillus fumigatus, UniProt P67875 28-176)
T1 sequence: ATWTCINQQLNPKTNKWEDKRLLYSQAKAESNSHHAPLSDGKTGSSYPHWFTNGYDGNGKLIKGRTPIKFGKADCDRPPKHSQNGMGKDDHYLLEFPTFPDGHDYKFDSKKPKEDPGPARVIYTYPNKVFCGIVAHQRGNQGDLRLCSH


Key:
[1] = biological target: T2, Ara h 3 (purified natural peanut allergen) (Arachis hypogaea); experiment: BLI, antibody on anti-human IgG Fc sensors, Ara h 3 as analyte, top 32 nM
T2 construct: mature; bought natural protein; also called natural Ara h 3; NA-AH3-1

BSA [2] = biological target: T3, BSA (UniProt P02769 25-607); experiment: indirect ELISA, OD heat map
T3 construct: also called bovine serum albumin; immobilized BSA

[3] = biological target: T2, Ara h 3 (purified natural peanut …); experiment: BLI, antibody on anti-human IgG Fc sensors, Ara h 3 as analyte, top 16 nM
[4] = biological target: T1, purified recombinant allergen …; experiment: indirect ELISA, OD heat map
BSA [5] = biological target: T3, BSA; experiment: indirect ELISA, OD heat map; remark: listed apart in the source
BSA [6] = biological target: T3, BSA; experiment: indirect ELISA heat map, hIgG subtracted

T2 sequence (main, as listed by the source): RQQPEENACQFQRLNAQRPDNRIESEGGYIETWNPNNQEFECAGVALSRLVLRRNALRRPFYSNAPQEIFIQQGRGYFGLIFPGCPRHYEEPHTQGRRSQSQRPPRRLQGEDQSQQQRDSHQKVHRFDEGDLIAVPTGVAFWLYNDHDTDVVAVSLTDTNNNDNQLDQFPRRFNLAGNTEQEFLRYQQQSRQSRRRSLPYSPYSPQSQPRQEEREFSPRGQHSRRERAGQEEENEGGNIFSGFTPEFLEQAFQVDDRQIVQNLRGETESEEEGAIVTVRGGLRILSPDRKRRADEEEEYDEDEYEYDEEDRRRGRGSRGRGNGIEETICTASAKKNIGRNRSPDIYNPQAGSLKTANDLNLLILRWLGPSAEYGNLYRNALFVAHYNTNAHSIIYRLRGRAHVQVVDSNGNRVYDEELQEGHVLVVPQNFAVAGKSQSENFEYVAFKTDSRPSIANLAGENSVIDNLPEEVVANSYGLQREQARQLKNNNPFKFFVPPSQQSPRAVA
T3 sequence (P02769 25-607 limits assumed): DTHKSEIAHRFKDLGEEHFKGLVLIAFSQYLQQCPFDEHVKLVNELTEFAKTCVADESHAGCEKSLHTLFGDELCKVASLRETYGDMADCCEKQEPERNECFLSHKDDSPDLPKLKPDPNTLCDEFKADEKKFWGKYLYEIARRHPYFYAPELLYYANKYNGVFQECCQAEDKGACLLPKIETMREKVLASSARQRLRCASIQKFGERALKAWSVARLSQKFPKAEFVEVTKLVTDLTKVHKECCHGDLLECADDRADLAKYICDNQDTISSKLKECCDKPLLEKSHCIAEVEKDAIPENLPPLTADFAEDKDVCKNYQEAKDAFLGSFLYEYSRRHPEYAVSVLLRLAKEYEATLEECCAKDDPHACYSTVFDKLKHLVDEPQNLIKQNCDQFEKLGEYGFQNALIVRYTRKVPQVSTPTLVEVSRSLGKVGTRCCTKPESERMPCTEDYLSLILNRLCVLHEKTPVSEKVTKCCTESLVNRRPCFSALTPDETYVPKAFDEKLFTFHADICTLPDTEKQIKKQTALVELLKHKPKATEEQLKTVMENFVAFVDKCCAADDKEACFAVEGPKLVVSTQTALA

| Binder | Kd [1] | binding result (BSA [2]) | further results |
| --- | --- | --- | --- |
| PA12P3D08 (antibody, human IgG1, V domains shown, human IgG1, kappa) VH: QVQLVESGGGVVQPGKSLRLSCAASAFTFRRFAMHWVRQAPGKGLEWVAVISDNGLREDYEDSVKGRFTISRDNSQNTLYLQMNGLRAEDTAVYYCAKVLDYNEYSLYFGMDVWGQGTTVTVSS VL: EVVLTQSPATLSLSPGERATLSCRTSQAISNNFLAWYQQRPGQPPRLLIYASSRRATDTPDRFTGSGSGTDFTLTITRLEPEDFAVYFCQYYSDSPPYTFGPGTKLEIK | 22 nM | no binding (tested: 2 ng/µL) | – |
| PA12P3F10 (antibody, human IgG1, V domains shown, human IgG1, kappa) VH: QVQLVESGGGVVQPGGSLTLSCVGSGFTFSHYAIHWVRQAPGKGLEWVAVISNVGTTRDYADSLKGRLTISRENSQSTVFLQMNSLRADDTAIYYCAKVLDYSEFHYYYGLDVWGQGTAVAVSS VL: EIVLTQSPGTLSLSPGQRVTLSCRVSQAIPTMYVAWYQQRPGQAPRLLIYGTSSRATGIPDRFSGGGSGTDFTLTINRLEPEDIAVYYCQHYSNSPPYTFGPGTKLEIK | 11 nM | no binding (tested: 2 ng/µL) | – |
| PA12P1C07 (antibody, human IgG1, V domains shown, human IgG1, kappa) VH: QVQLEESGGGVVQPGKSLRLSCVASAFTFKRFAMHWVRQAPGKGLEWVAVISDNGLREDYEDSVKGRFTISRDNSKDTLYLQMNSLRPEDTAIYYCAKVLDYSEYSLYFGMDVWGQGTTVLVSS VL: EIVLTQSPAILSLSPGDRATLSCRTSQTVNSNFLAWYQQKPGQAPRLLIYGASRRAIDIPDRFTGSGSGTEFTLTIARLEPEDFAVYSCQHYSDSPPYTFGQGTKLEIK | 11 nM | no binding (tested: 2 ng/µL) | – |
| PA13P1E10 (antibody, human IgG1, V domains shown, human IgG1, kappa) VH: QVQLVDSGGGVVQPGKSLRLSCVGSGFTFRTFGIHWVRQAPGKGLEWVAVISNDGGNSASADSVKGRFTTSRDNSKNTVYLQINSLRPEDTAIYYCAKVLDYSAFSYYYGMDVWGQGTTVIVSS VL: EIVLTQSPGTLSLSPGERGTLSCRTSQPISRAHLAWYQHKAGQAPRLLIYGSTERAAGIPERFSGGGSGSDFTLTISSLEAEDFAVYYCQHYGRSPPYTFGQGTKVEIK | 5 nM | no binding (tested: 2 ng/µL) | – |
| PA13P3G09 (antibody, human IgG1, V domains shown, human IgG1, kappa) VH: QEQLVESGGGVVHPGGSLRLSCVASAFTFNRFGMHWVRQAPGKGLEWVAVISNDGRSQDYADSVKGRFIISRDNSKNTLYLQLNSLRFEDTAVYYCAKVLDYSIFYYYFGLDVWGQGTTVTVSS VL: EVVLTQSPGSLSLSPGERATLSCRAGQSLSSKFLAWYQHKPGQAPRLLIYGASTRATGVPDRFSGSGSGTDFSLIISRVEPEDFAVYYCQHYGDSPPYTFGQGTKVEMK | 19 nM | no binding (tested: 2 ng/µL) | – |
| PA13P1H08 variant rCDR1-N (antibody, human IgG1, V domains shown, human IgG1, kappa; also called heavy chain CDR1 reverted) VH: QVQLVNSGGGVVQPGRSLRLSCVASGFTFSSYGIHWVRQAPGKGLEWVAVISNDGEKSESADSVKGRFTPSRDNSKNTVYLQMNNLRVEDTAVYYCAKVLDYSRYSYYYGMDVWGQGTTVIVSS VL: EIVLTQSPGTLSLSPGGRGTLSCRTSQTINNAHLAWYQHKPGQAPRLLIYGSSERATGVPDRFSGSGSGSDFTLTISSLEAEDFAVYYCQHYGRSPPYTFGPGTKLDIK | – | no binding (tested: 2 ng/µL) | Kd [3]: 0.5 nM |
| PA13P1H08 variant rCDR2-N (antibody, human IgG1, V domains shown, human IgG1, kappa; also called heavy chain CDR2 reverted) VH: QVQLVNSGGGVVQPGRSLRLSCVASGFTFSTFGIHWVRQAPGKGLEWVAVISYDGSNKESADSVKGRFTPSRDNSKNTVYLQMNNLRVEDTAVYYCAKVLDYSRYSYYYGMDVWGQGTTVIVSS VL: EIVLTQSPGTLSLSPGGRGTLSCRTSQTINNAHLAWYQHKPGQAPRLLIYGSSERATGVPDRFSGSGSGSDFTLTISSLEAEDFAVYYCQHYGRSPPYTFGPGTKLDIK | – | no binding (tested: 2 ng/µL) | Kd [3]: 0.0042 nM |
| PA13P1H08 variant rCDR3-N (antibody, human IgG1, V domains shown, human IgG1, kappa; also called heavy chain CDR3 reverted) VH: QVQLVNSGGGVVQPGRSLRLSCVASGFTFSTFGIHWVRQAPGKGLEWVAVISNDGEKSESADSVKGRFTPSRDNSKNTVYLQMNNLRVEDTAVYYCAKVLDYSNYYYYYGMDVWGQGTTVIVSS VL: EIVLTQSPGTLSLSPGGRGTLSCRTSQTINNAHLAWYQHKPGQAPRLLIYGSSERATGVPDRFSGSGSGSDFTLTISSLEAEDFAVYYCQHYGRSPPYTFGPGTKLDIK | – | no binding (tested: 2 ng/µL) | Kd [3]: 0.29 nM |
| 1003320101_D6 (antibody, V domains shown, also called Clone 1003320101_D6) VH: EVQLVASGGGLIHPGGSLRLSCEASGFSFSRFWMYWVRQSPGEGLVWVARLSGDGTVTNYADSMEGRVTISRDNVKNTLFLEMNSLREGDTGIYYCARKDCPSLSCQLDYWGQGVQVTVSS VL: QSVLTQPPSVSAAPGQKVTISCSGSTSNIGKNYVSWYQHFPGAAPKLLIFDNDKRPSGIPDRFSGSRSGTSATLDITGLQTGDEADYFCATWDSRLSADVFGSGTTVSVL | – | – | binding result [4]: no binding (tested: 2 ng/µL); binding result (BSA [5]): no binding (tested: 2 ng/µL) |
| 1003320105_D6 (antibody, V domains shown, also called Clone 1003320105_D6) VH: EVQLLESGGGLVQPGGSLRLSCAASGFNFSNFAVSWVRQTPGKGLEWVSAILGSRSVTYYADSVKGRFTISRDKSKNALYLQMDSLRAEDTAIYYCAKLFFMPYSHDDSGDYWGQGTLVAVSS VL: QLVLTQSPSASASLGASVKLTCTLSSDHRSYAIAWHQQQPGKGPRYLMKVNRDGSHIKGDGIPHRFSGSSSVTERYLIISSLQSEDEADYYCQSWDTGIQVFGGGTRLTVV | – | – | binding result [4]: no binding (tested: 2 ng/µL); binding result (BSA [5]): no binding (tested: 2 ng/µL) |
| 1003320107_F8 (antibody, V domains shown, also called Clone 1003320107_F8) VH: EVQLVESGGGLVQPGGSLKLSCAASGFTFSGSTIHWVRQTSGKGLEWVGRIGSKATSYATAYAASVKGRFTISRDDSKNTAYLQMNSLKTEDTAVYFCTRRYYDTTKSVLVVSDSWGQGTLVTVSS VL: SYELTQPPSMSVSPGQTARITCSGDVLAKQFAYWYQQKPGQAPVLVIYKDSERPSGIPERFSGSSSGTIITLTISGVQAEDEADYYCQSADSSGTSWVFGGGTKLTVL | – | – | binding result [4]: no binding (tested: 2 ng/µL); binding result (BSA [5]): no binding (tested: 2 ng/µL) |
| PA12P1G11 (antibody, human IgG1, V domains shown, human IgG1) VH: QVQLVQSGAEVRKPGSSVKVSCKASGGTFSNNPITWVRQAPGQGLEWMGWIIPIFNTTNYAQKFQGRVTITADESTSTAYMELSSLKSEDTALFYCARDRAHAYCNNGVCYTTDAFDVWGQGTLVTVSS VL: ETVLTQSPATLSLSPGERATLSCRASQSVGRYLAWYQHKPGQAPRLLIYDASNRATGIPARFSGSGSGTDFTLTISSLEPEDSAVYYCQQGTDWLTFGGGTKVEIK | – | – | binding result (BSA [6]): no binding (tested: 2 ng/µL) |
| PA13P1H03 (antibody, human IgG1, V domains shown, human IgG1) VH: EVQLVESGGGLVQPGGSLRLSCAASGFTFRNYWMNWVRQAPGKGLVWVSRINSEGSSTSYADPVKGRFTISRDNAKDTLYLQMDSLRAEDSAVYYCARIFNGYIHVGRDYWGQGTRVTVSS VL: DIQMTQSPSTLSASIGDRVTITCRASESISNWLAWFQQKPGKAPKLLIYKASNLESGVPSRFSGSGSGTEFTLTISSLQPDDFATYYCQQYNSNSQTFGQGTKLDLK | – | – | binding result (BSA [6]): no binding (tested: 2 ng/µL) |

From patent US20210246195A1 (CZ BIOHUB SF, published 2021)
